Reference: paper PMC10140165, “Cryo-EM reveals the membrane-binding phenomenon of EspB, a virulence factor of the mycobacterial type VII secretion system” (The Journal of Biological Chemistry, 2023)
Where “and” joins values, the source holds several entries; their conditions need not be identical. Equal entries are not always repeated.

Target: the molecule itself
Test: cryo-EM 2D class averages

B1: EspB_(1–332) (domain or fragment)
chain: MTQSQTVTVDQQEILNRANEVEAPMADPPTDVPITPCELTAAKNAAQQLVLSADNMREYLAAGAKERQRLATSLRNAAKAYGEVDEEAATALDNDGEGTVQAESAGAVGGDSSAELTDTPRVATAGEPNFMDLKEAARKLETGDQGASLAHFADGWNTFNLTLQGDVKRFRGFDNWEGDAATACEASLDQQRQWILHMAKLSAAMAKQAQYVAQLHVWARREHPTYEDIVGLERLYAENPSARDQILPVYAEYQQRSEKVLTEYNNKAALEPVNPPKPPPAIKIDPPPPPQEQGLIPGFLMPPSDGSGVTPGTGMPAAPMVPPTGSPGGGLP
  stoichiometry N: 7 and 6
